# T1: PRE-MRNA PROCESSING PROTEIN 40b (AtPRP40b), recombinant (Arabidopsis thaliana, UniProt F4JCC1 1-992)
# T1 construct: AtPRP40b, Arabidopsis thaliana U1 snRNP auxiliary protein; Made as MBP-6xHis-AtPRP40b from a pMal-derived plasmid; MBP cut off with TEV protease; Detected with anti-PRP40b; source: E. coli BL21-CodonPlus(DE3)-RIL, purified (Ni-NTA, TEV cleavage, second Ni-NTA, size exclusion chromatography); not shown: MBP, N-terminal, cleaved
# T1 sequence (looked up): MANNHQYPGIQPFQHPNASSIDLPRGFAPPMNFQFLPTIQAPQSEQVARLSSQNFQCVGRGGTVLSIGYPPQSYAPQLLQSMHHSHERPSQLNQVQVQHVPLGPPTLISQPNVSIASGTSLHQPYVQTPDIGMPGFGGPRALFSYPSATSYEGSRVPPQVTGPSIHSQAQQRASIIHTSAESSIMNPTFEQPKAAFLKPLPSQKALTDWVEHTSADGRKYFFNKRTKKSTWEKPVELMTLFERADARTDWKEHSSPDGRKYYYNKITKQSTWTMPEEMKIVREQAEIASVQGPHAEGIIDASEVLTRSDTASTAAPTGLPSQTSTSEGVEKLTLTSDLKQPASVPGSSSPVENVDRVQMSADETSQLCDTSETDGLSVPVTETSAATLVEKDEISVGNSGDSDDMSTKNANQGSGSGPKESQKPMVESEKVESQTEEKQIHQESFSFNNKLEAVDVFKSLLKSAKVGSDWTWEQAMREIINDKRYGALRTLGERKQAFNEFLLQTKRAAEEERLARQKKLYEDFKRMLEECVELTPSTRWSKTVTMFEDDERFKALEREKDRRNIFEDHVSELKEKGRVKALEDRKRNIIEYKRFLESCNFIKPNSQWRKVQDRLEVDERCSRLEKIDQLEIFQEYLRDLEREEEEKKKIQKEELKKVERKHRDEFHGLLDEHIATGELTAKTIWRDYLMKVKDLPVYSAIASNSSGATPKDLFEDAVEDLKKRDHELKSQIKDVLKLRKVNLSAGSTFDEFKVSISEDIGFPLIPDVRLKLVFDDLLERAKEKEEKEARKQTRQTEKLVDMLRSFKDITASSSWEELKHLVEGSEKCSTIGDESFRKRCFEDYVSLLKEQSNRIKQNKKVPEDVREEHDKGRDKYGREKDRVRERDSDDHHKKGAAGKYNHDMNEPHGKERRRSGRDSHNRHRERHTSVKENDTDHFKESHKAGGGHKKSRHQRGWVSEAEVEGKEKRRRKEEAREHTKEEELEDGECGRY
# B1: SERRATE (SE), full length, recombinant (natural protein, Arabidopsis thaliana, UniProt Q9ZVD0 1-720, looked up)
# chain: MADVNLPPSDSVDNRLPEKSTSSSPPPPPPSSSLPQQEQEQDQQQLPLRRERDSRERRDERDIERPPPNRRERDRSPLPPPRRDYKRRPSLSPPPPYRDRRHSPPQRRSPPQKRYRRDDNGYDGRRGSPRGGYGPPDRRFGYDHGGGYDREMGGRPGYGDERPHGRFMGRYQDWEGGRGGYGDASNSGNPQRDGLMSYKQFIQELEDDILPSEAERRYQEYKSEYITTQKRAFFNTHKEEDWLKNKYHPTNLLSVIERRNDLAQKVAKDFLLDLQSGTLDLGPAVTALNKSGRTSEPNSEDEAAGVGKRKRHGMGGAKENELLSAAPKAPSFTSDPKRILTDVEQTQALVRKLDSEKKIEENVLQGSETEKSGREKLHSGSTGPVVIIRGLTSVKGLEGVELLDTLVTYLWRVHGLDYYGKVETNEAKGLRHVRAEGKVSDAKGDENESKFDSHWQERLKGQDPLEVMAAKEKIDAAATEALDPHVRKIRDEKYGWKYGCGAKGCTKLFHAAEFVYKHLKLKHTELVTELTTKVREELYFQNYMNDPNAPGGQPATQQSGPRDRPIRRKPSMENRLRDDRGGRRERDGRANGNDRNDRSEDQQRGDNDGGNPGEVGYDAFGGQGGVHVPPFLSDINPPPMLMPVPGAGPLGPFVPAPPEVAMQMFRDPSGPNPPFEGSGRGGPAPFLLSPAFRQDPRRLRSYQDLDAPEEEVTVIDYRSL
# notes: SERRATE, Arabidopsis thaliana, core component of the plant microprocessor; full length (720 residues by the printed deletion Δ681-720); Made as MBP-6xHis-SE from a pMal-derived plasmid; MBP cut off with TEV protease; source: E. coli BL21-CodonPlus(DE3)-RIL, purified (Ni-NTA, TEV cleavage, second Ni-NTA, size exclusion chromatography); not shown: MBP, N-terminal, cleaved
# Target: T1, PRE-MRNA PROCESSING PROTEIN 40b …
# Assay: pull-down; 2 µg biotinylated CTD peptide on streptavidin paramagnetic particles; 2 µg of SE variant and AtPRP40b together; 1.5 h at 4°C in PBS pH 8.3, 5% glycerol, 1 mM DTT, 0.1% NP-40; five washes, immunoblot
# Conditions: both partners purified
binder,measurement,value
B1,binding result,binds
